The target of data set [1] is T1, PDZ-RhoGEF PDZ domain (residues 41-123), human (human, UniProt O15085 41-123).
T1 sequence (looked up): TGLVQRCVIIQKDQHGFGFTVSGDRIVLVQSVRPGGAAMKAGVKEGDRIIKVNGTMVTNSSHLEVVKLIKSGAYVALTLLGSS
Put plainly: crystal structure.

Data set [2] deals with the molecule itself. Put plainly: SDS-PAGE with/without BME.

Take TSTTL [CXCR2 C-terminal PDZ binding motif TSTTL (residues 356-360 of human CXCR2)]: in data set [1], the binding result is listed as “binds”.

B1: rPDZ-CXCR2 fusion protein: human PDZ-RhoGEF PDZ (residues 41-123) with the C-terminal extension TSTTL of human CXCR2 (other)
chain: TGLVQRCVIIQKDQHGFGFTVSGDRIVLVQSVRPGGAAMKAGVKEGDRIIKVNGTMVTNSSHLEVVKLIKSGAYVALTLLGSSTSTTL
One may read the stoichiometry N as the number of molecules, sites or subunits per partner or assembly. On to B1, for which the “stoichiometry N” value in data set [2] worked out at 2.

Source of the values: paper PMC5367461 (Biochemical and biophysical research communications, 2017).
